Measured values taken from publication PMC4383634, “Dual-Specificity Anti-sigma Factor Reinforces Control of Cell-Type Specific Gene Expression in Bacillus subtilis” (PLoS Genetics, 2015).

T1: GST-σ^E fusion protein, lacking its pro region (sigma fragment a) (B. subtilis, UniProt P06222 30-239)
T1 construct: source: E. coli, overproduced and partially purified; not shown: GST, N-terminal, kept
T1 sequence (looked up): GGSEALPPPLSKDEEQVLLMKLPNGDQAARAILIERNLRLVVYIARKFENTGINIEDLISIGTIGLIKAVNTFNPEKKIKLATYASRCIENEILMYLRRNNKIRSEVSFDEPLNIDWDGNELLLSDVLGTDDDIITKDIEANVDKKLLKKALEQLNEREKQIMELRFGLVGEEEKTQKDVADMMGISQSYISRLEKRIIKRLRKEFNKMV

T2: GST-σ^(E 30–172) (B. subtilis, UniProt P06222 30-172)
T2 construct: σ^E of B. subtilis, residues 30-172, regions 2.1 through 3.1; also called fragment d; regions 2.1 through 3.1; source: E. coli, overproduced and partially purified; not shown: GST, N-terminal, kept
T2 sequence (looked up): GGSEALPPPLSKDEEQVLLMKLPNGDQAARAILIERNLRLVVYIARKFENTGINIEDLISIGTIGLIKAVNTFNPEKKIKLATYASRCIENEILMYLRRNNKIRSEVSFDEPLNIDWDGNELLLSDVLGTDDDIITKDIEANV

T3: GST-σ^(E 30–141) (B. subtilis, UniProt P06222 30-141)
T3 construct: also called fragment c; regions 2.1 through 2.4; source: E. coli, overproduced and partially purified; not shown: GST, N-terminal, kept
T3 sequence (looked up): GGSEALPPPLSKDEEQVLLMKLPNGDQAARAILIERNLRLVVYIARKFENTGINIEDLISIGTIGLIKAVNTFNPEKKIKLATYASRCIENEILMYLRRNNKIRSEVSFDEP

T4: σ^E, untagged, lacking its pro-sequence (B. subtilis, UniProt P06222 30-239)
T4 construct: printed molecular weight 29 kDa; a tag was perhaps removed; also called purified σ^E; source: E. coli, overproduced, purified
T4 sequence (looked up): T1 sequence (looked up)

B1: CsfB-StrepII-tagged protein (natural protein, B. subtilis, UniProt P37534 1-64, looked up)
chain: MDETVKLNHTCVICDQEKNRGIHLYTKFICLDCERKVISTSTSDPDYAFYVKKLKSIHTPPLYS
notes: CsfB (Gin), anti-sigma factor of B. subtilis; source: E. coli, overproduced and partially purified; not shown: Strep II tag, C-terminal, kept
B2: His6-CsfB (natural protein, B. subtilis, UniProt P37534 1-64, looked up)
chain: B1 chain
notes: CsfB (Gin), anti-sigma factor of B. subtilis; the plasmid is described in S1 Text; also called purified CsfB; source: E. coli, overproduced, purified (Ni-NTA, Superdex 75); not shown: His6, N-terminal, kept

Legend:
Settings in all cases: both partners purified
[1] = molecular target: T1, GST-σ^E fusion protein, lacking its pro …; assay: pull-down; GST or GST-σ^E fusions on glutathione beads incubated with CsfB-Strep II (100 nM); after washing, eluted proteins immunoblotted with anti-Strep II tag antibody
GST-σ^(E 30–172) = molecular target: T2, GST-σ^(E 30–172); assay: as above
GST-σ^(E 30–141) = molecular target: T3, GST-σ^(E 30–141); assay: as above
[2] = molecular target: T4, σ^E, untagged, lacking its pro-sequence; assay: pull-down; Ni2+-NTA affinity chromatography: His6-CsfB held on the column, untagged purified σ^E or σ^K applied, eluted with an imidazole buffer, SDS-PAGE and Coomassie staining

Row | Binder | binding result [1] | binding result (GST-σ^(E 30–172)) | binding result (GST-σ^(E 30–141)) | binding result [2]
1 | B1 | binds | binds | binds | –
2 | B2 | – | – | – | binds
